Reference: patent US20240003871A1, “IPSC-DERIVED ASTROCYTES AND METHODS OF USE THEREOF” (FUJIFILM Cellular Dynamics, Inc., priority 2022, published 2024)

B1: IFN-gamma: cytokine used to stimulate astrocytes (protein, UniProt P01579 24-161, looked up)
Interferon gamma: QDPYVKEAENLKKYFNAGHSDVADNGTLFLGILKNWKEESDRKIMQSQIVSFYFKLFKNFKDDQSIQKSVETIKEDMNVKFFNSNKKKRDDFEKLTNYSVTDLNVQRKAIHELIQVMAELSPAAKTGKRKRSQMLFRG
B2: IL-1alpha: pro-inflammatory cytokine used to stimulate astrocytes (protein, UniProt P01583 113-271, looked up)
Interleukin-1 alpha: SAPFSFLSNVKYNFMRIIKYEFILNDALNQSIIRANDQYLTAAALHNLDEAVKFDMGAYKSSKDDAKITVILRISKTQLYVTAQDEDQPVLLKEMPEIPKTITGSETNLLFFWETHGTKNYFTSVAHPNLFIATKQDYWVCLAGGPPSITDFQILENQA

System: Astrocytes
Assay: Luminex assay of proteins secreted by astrocytes after cytokine stimulation
Assay type: cell-based, human
Settings: stimulation in basal medium for 24 hours; average of four lots
Experimental: FIGS. 8A-8J: Astrocytes from four lots were thawed and cultured for 7 days in Astro 3 media, before stimulation in basal medium for 24 hours. Supernatant was collected and assayed using a custom Luminex assay from R&D on the FLEXMAP 3D instrument, according to manufacturer's instructions. Each condition was run in duplicate, with the average of all four lots compared to the control (unstimulated) condition to calculate fold change. Error bars are +/−1 SEM. […] The combination of IFN-gamma with TNF-alpha produced the highest fold-change over control, with over 84-fold secretion of IL-1ra compared to control. IL-1ra binds to cell surface IL-1 receptors, blocking binding of pro-inflammatory IL-1alpha and IL-1beta. […] TNF-alpha combined with either IL-1alpha or IL-1beta increased IL-6 secretion by over 3300-fold compared to control. IL-6 attracts pro-inflammatory T cells and promotes demyelination. […] TNF-alpha combined with either IL-1alpha or IL-1beta increased IL-8 secretion by over 12,000-fold compared to control. IL-8/CXCL8 is secreted by astrocytes to attract pro-inflammatory immune cells after insults. This analyte also plays a role in recruitment and differentiation of oligodendrocyte precursor cells (OPCs) to promote remyelination. […] TNF-alpha alone, or combined with IL-1alpha, IL-1beta or IFN-gamma increased IL-10 secretion by over 1000-fold compared to control. IL-10 is secreted by astrocytes to reduce iNos activity and reduce astrogliosis. […] TNF-alpha alone, or combined with IL-1alpha, IL-1beta or IFN-gamma increased CCL5/RANTES secretion by over 2500-fold compared to control. CCL5/RANTES controls the movements of peripheral immune cells. […] TNF-alpha combined with IL-1alpha or IL-1beta increased CCL7 secretion by over 15,000-fold compared to control. CCL7 is important for astrocyte-microglia interactions and induces microglia activation. […] Stimulation with IL-1alpha or TNF-alpha alone increased CCL20 secretion by over 18-fold over unstimulated control. TNF-alpha combined with IL-1alpha, IL-1beta or IFN-gamma increased CCL20 secretion by over 100-fold compared to control. CCL20 is secreted by astrocytes in response to pro-inflammatory stimuli and attracts T-cells, B-cells and DCs. […] Stimulation with IL-1alpha increased CXCL1 secretion by 84-fold over unstimulated control. TNF-alpha combined with IL-1alpha or IL-1beta increased CXCL1 secretion by over 450-fold compared to control. CXCL1 is secreted by astrocytes to recruit neutrophils to the site of infection, and increases BBB permeability. […] CXCL2 activates CXCR2, found on oligodendrocytes and OPCs, which increases OPC proliferation and differentiation. […] CXCL5 is secreted by astrocytes in response to injury and activates microglia, resulting in decreased microglia phagocytosis and inhibition.
Astrocytes from four lots were thawed and cultured for 7 days in Astro 3 media, before stimulation in basal medium for 24 hours. Supernatant was collected and assayed using a custom Luminex assay from R&D on the FLEXMAP 3D instrument, according to manufacturer's instructions. […] The combination of IFN-gamma with TNF-alpha produced the highest fold-change over control, with over 84-fold secretion of IL-1ra compared to control. IL-1ra binds to cell surface IL-1 receptors, blocking binding of pro-inflammatory IL-1alpha and IL-1beta.

Molecule | CCL7 secretion, fold change over unstimulated control [fold] | IL-1ra secretion, fold change over unstimulated control | IL-8/CXCL8 secretion, fold change over unstimulated control | IL-6 secretion, fold change over unstimulated control | IL-10 secretion, fold change over unstimulated control | CCL5/RANTES secretion, fold change over unstimulated control [fold] | CXCL1 secretion, fold change over unstimulated control [fold] | CXCL2 secretion, fold change over unstimulated control [fold] | CXCL5 secretion, fold change over unstimulated control [fold]
TNF-alpha | 1184 | three | 898 fold | – | – | – | – | – | –
B1 | – | robust secretion | – | 32 fold | 161 fold | – | – | – | –
B2 | 2177 | three | over 3300 fold | over 400 fold | over 415 fold | 156 | 84 | 379 | 161
